From patent publication US6905817B1, “Ret-independent signaling pathway for GDNF” (Licestia Ltd., priority 1998, dated 2005)

System: Src-type kinase
Assay: Immuno-complex kinase assay on anti-GFRα1 co-precipitates from SHEP neuroblastoma cells
Assay type: cell-based, human
Settings: GDNF 100 ng/ml
Protocol: DRG neurons (5×10^5), SHEP neuroblastoma cells (10^7), Neuro2A neuroblastoma cells stably transfected with GFRα1 (10^7) or NIH3T3 cells (NIH3T3/pBpGFRα1) stably transfected with GFRα1 (10^7) were incubated in serum-free culture medium without (control) or with GDNF (GDNF-treated) for 0.5-15 min at 37° C. The cells were washed twice with cold PBS/vanadate and lysed in TX-100 lysis buffer (50 mM Tris-HCl, pH 7.5, 150 mM NaCl, 5 mM EDTA, 1% Triton X-100, 1 mM sodium orthovanadate, 1 mM phenylmethylsulfonyl fluoride (PMSF) and protease inhibitors (Boehringer) on ice for 1 hour. The postnuclear lysates were pre-cleared by incubation with 50 μl of 50% Protein G-Sepharose for goat polyclonal antibodies or Protein A-Sepharose CL4B (Pharmacia) for rabbit polyclonal antibodies for 1 hour at +4° C. After removal of the beads, the supernatants were incubated with 0.4-0.5 μg of anti-GFRα1 or anti-Yes polyclonal antibodies (Santa Cruz Biotechnology) overnight at +4° C. followed by incubation with Protein G or A-Sepharose for 2 hours. The immunocomplexes were washed twice in TX-100 lysis buffer without EDTA and twice in kinase buffer (25 mM Hepes, pH 7.4, 5 mM MgCl2, 5 mM MnCl2, 1 mM sodium orthovanadate). […] Quantification of the optical density of the blots was performed using the TINA program. […]

B1: Glial cell line—derived neurotrophic factor (protein, UniProt P39905 78-211, looked up)
Glial cell line-derived …: SPDKQMAVLPRRERNRQAAAANPENSRGKGRRGQRGKNRGCVLTAIHLNVTDLGLGYETKEELIFRYCSGSCDAAETTYDKILKNLSRNRRLVSDKVGQACCRPIAFDDDLSFLDDNLVYHILRKHSAKRCGCI
notes: TGF-β family-related neurotrophic protein; from PeproTech and donated by Cephalon, Inc
B1 was tested, and the “Src type kinase activity associated with GFRα1” value (1 min, postnuclear lysate) was “significantly increased Src type kinase activity” and the “increase of Src-type kinase activity” value (Triton X-100 insoluble fractions, relative to non-treated cells) was “twelve-fold”.
